Experimental data from publication PMC2867956, “Interdomain Interactions Control Ca^2+-Dependent Potentiation in the Cation Channel TRPV4” (PLoS ONE, 2010).

Assays:
[1] = target: N1-YFP (full-length TRPV4 N terminus); experiment: FRET or BRET; acceptor photobleaching FRET of CFP- and YFP-fused TRPV4 termini coexpressed in HEK293 cells
[2] = target: YFP-fused C1 fragment (full-length TRPV4 C terminus); experiment: FRET acceptor photobleaching in HEK293 cells; conditions: coexpressed in HEK293 cells; 3 independent experiments; parent: est. 35; read off a plot
[3] = target: C2-GST-biotin (C-terminal TRPV4 fragment C2) (human); experiment: AlphaScreen or HTRF; C2-biotin with CaM-Flag or mutants, Ca2+ concentration varied
[4] = target: C2-Flag (C-terminal TRPV4 fragment C2) (human); experiment: AlphaScreen or HTRF; competition: acceptor beads with C2-Flag, donor beads with P2-biotin or C2-biotin, increasing CaM, 100 µM Ca2+ or 1 mM EGTA
Chain of C2-Flag (C-terminal TRPV4 fragment C2) (human) (Q9HBA0 whole entry, the tested form may be a part): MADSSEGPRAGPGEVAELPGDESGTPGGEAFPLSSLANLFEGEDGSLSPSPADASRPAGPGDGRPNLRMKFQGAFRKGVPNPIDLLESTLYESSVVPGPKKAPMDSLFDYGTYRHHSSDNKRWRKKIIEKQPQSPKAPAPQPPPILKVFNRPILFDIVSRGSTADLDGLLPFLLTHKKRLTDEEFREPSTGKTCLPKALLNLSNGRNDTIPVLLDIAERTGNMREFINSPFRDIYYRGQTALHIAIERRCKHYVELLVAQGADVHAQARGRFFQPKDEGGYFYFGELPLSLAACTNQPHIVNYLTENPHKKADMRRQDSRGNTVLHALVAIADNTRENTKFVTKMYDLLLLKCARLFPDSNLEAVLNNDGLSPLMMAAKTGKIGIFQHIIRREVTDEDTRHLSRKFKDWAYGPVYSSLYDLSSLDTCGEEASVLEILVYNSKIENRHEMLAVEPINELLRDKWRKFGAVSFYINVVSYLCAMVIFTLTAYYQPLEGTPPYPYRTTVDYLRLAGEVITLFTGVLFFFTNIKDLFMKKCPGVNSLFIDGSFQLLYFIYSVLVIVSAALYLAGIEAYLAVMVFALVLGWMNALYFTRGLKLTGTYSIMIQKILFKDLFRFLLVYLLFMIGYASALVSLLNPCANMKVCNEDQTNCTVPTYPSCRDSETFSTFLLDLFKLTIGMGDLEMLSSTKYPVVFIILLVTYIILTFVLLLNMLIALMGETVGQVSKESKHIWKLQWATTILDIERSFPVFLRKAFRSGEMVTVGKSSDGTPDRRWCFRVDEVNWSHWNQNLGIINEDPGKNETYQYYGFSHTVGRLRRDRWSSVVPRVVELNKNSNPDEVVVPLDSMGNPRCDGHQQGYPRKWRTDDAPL

Chain of N1-YFP (full-length TRPV4 N terminus) (Q9HBA0 whole entry, the tested form may be a part): as above
Chain of CFP-fused N1 (full-length TRPV4 N terminus) (domain or fragment) (Q9HBA0 whole entry, the tested form may be a part): as above
Chain of C2-GST-biotin (C-terminal TRPV4 fragment C2) (human) (Q9HBA0 whole entry, the tested form may be a part): as above

Substance “CFP-fused N1 (full-length TRPV4 N terminus) (domain or fragment)” has a maximal relative donor fluorescence increase after acceptor bleaching [1] of 1.27.
Work on “CFP-fused N1 (full-length TRPV4 N terminus) KRA” yielded a response [2] of 17%.
For “CFP-fused N1 (full-length TRPV4 N terminus) WIA”, the response [2] was 25%.
Substance “CaM12 (CaM mutant Ca2+ binding-deficient in the N lobe), Flag-tagged (from UniProt P0DP23 1-149) (natural protein)” has an EC50 of Ca2+ for the interaction [3] of 10.7 µM.
Substance “CaM34 (CaM mutant Ca2+ binding-deficient in the C lobe), Flag-tagged (from UniProt P0DP23 1-149) (natural protein)” has an EC50 of Ca2+ for the interaction [3] of 27 µM.
“calmodulin (from UniProt P0DP23 1-149) (natural protein)” was tested, and the IC50 [4] was 0.166 µM.
Substance “wild type CaM-Flag (from UniProt P0DP23 1-149) (natural protein)” has an EC50 of Ca2+ for the interaction [3] of 8.8 µM.
